B1: Protein LYRIC (Homo sapiens), Q86UE4 (parent)
chain: MAARSWQDELAQQAEEGSARLREMLSVGLGFLRTELGLDLGLEPKRYPGWVILVGTGALGLLLLFLLGYGWAAACAGARKKRRSPPRKREEAAAVPAAAPDDLALLKNLRSEEQKKKNRKKLSEKPKPNGRTVEVAEGEAVRTPQSVTAKQPPEIDKKNEKSKKNKKKSKSDAKAVQNSSRHDGKEVDEGAWETKISHREKRQQRKRDKVLTDSGSLDSTIPGIENTITVTTEQLTTASFPVGSKKNKGDSHLNVQVSNFKSGKGDSTLQVSSGLNENLTVNGGGWNEKSVKLSSQISAGEEKWNSVSPASAGKRKTEPSAWSQDTGDANTNGKDWGRSWSDRSIFSGIGSTAEPVSQSTTSDYQWDVSRNQPYIDDEWSGLNGLSSADPNSDWNAPAEEWGNWVDEERASLLKSQEPIPDDQKVSDDDKEKGEGALPTGKSKKKKKKKKKQGEDNSTAQDTEELEKEIREDLPVNTSKTRPKQEKAFSLKTISTSDPAEVLVKNSQPIKTLPPATSTEPSVILSKSDSDKSSSQVPPILQETDKSKSNTKQNSVPPSQTKSETSWESPKQIKKKKKARRET

Variants of: B1
Settings: with snd1_human SND1, Q7KZF4
Sequence of snd1_human SND1, Q7KZF4 (Q7KZF4 whole entry): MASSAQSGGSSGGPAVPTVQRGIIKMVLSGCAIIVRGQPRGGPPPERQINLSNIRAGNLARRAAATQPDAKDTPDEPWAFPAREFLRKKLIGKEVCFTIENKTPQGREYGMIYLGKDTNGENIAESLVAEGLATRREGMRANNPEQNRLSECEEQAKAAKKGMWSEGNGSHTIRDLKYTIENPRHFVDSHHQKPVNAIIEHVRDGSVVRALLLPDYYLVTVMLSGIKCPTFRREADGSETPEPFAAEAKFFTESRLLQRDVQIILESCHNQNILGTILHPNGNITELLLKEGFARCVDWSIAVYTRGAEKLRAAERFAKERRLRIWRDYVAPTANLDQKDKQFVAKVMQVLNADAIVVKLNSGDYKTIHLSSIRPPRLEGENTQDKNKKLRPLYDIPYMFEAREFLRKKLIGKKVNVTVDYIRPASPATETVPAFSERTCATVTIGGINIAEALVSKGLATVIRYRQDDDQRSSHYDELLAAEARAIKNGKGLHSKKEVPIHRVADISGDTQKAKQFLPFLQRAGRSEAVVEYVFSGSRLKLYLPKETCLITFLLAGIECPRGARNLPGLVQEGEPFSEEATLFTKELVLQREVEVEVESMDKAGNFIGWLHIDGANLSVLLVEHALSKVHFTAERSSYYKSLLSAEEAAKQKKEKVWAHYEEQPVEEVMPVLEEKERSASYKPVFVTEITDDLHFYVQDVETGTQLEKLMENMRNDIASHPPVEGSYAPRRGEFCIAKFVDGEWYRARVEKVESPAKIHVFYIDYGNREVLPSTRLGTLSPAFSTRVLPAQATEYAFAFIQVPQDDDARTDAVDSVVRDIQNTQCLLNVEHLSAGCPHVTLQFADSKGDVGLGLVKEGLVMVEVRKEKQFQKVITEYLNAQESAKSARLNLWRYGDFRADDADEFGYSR

**Q.** How did the “effect of a mutation on the interaction” value turn out when MAARSWQDELAQQAEEGSARLREMLSVGLGFLRTELGLDLGLEPKRYPGWVILVGTGALGLLLLFLLGYGWAAACAGARKKRRSPPRKREEAAAVPAAAPDDLALLKNLRSEEQKKKNRKKLSEKPKPNGRTVEVAEGEAVRTPQSVTAKQPPEIDKKNEKSKKNKKKSKSDAKAVQNSSRHDGKEVDEGAWETKISHREKRQQRKRDKVLTDSGSLDSTIPGIENTITVTTEQLTTASFPVGSKKNKGDSHLNVQVSNFKSGKGDSTLQVSSGLNENLTVNGGGWNEKSVKLSSQISAGEEKWNSVSPASAGKRKTEPSAWSQDTGDANTNGKDWGRSWSDRSIFSGIGSTAEPVSQSTTSDYQWDVSRNQPYIDDEWSGLNGLSSADPNSDWNAPAEEDGNWVDEERASLLKSQEPIPDDQKVSDDDKEKGEGALPTGKSKKKKKKKKKQGEDNSTAQDTEELEKEIREDLPVNTSKTRPKQEKAFSLKTISTSDPAEVLVKNSQPIKTLPPATSTEPSVILSKSDSDKSSSQVPPILQETDKSKSNTKQNSVPPSQTKSETSWESPKQIKKKKKARRET [W401D] was run?
**A.** decreasing interaction strength

**Q.** With MAARSWQDELAQQAEEGSARLREMLSVGLGFLRTELGLDLGLEPKRYPGWVILVGTGALGLLLLFLLGYGWAAACAGARKKRRSPPRKREEAAAVPAAAPDDLALLKNLRSEEQKKKNRKKLSEKPKPNGRTVEVAEGEAVRTPQSVTAKQPPEIDKKNEKSKKNKKKSKSDAKAVQNSSRHDGKEVDEGAWETKISHREKRQQRKRDKVLTDSGSLDSTIPGIENTITVTTEQLTTASFPVGSKKNKGDSHLNVQVSNFKSGKGDSTLQVSSGLNENLTVNGGGWNEKSVKLSSQISAGEEKWNSVSPASAGKRKTEPSAWSQDTGDANTNGKDWGRSWSDRSIFSGIGSTAEPVSQSTTSDYQWDVSRNQPYIDDEWSGLNGLSSADPNSDDNAPAEEWGNWVDEERASLLKSQEPIPDDQKVSDDDKEKGEGALPTGKSKKKKKKKKKQGEDNSTAQDTEELEKEIREDLPVNTSKTRPKQEKAFSLKTISTSDPAEVLVKNSQPIKTLPPATSTEPSVILSKSDSDKSSSQVPPILQETDKSKSNTKQNSVPPSQTKSETSWESPKQIKKKKKARRET [W394D] as the variant, how does the “effect of a mutation on the interaction” value read?
**A.** disrupting interaction strength

**Q.** How did the “effect of a mutation on the interaction” value turn out when MAARSWQDELAQQAEEGSARLREMLSVGLGFLRTELGLDLGLEPKRYPGWVILVGTGALGLLLLFLLGYGWAAACAGARKKRRSPPRKREEAAAVPAAAPDDLALLKNLRSEEQKKKNRKKLSEKPKPNGRTVEVAEGEAVRTPQSVTAKQPPEIDKKNEKSKKNKKKSKSDAKAVQNSSRHDGKEVDEGAWETKISHREKRQQRKRDKVLTDSGSLDSTIPGIENTITVTTEQLTTASFPVGSKKNKGDSHLNVQVSNFKSGKGDSTLQVSSGLNENLTVNGGGWNEKSVKLSSQISAGEEKWNSVSPASAGKRKTEPSAWSQDTGDANTNGKDWGRSWSDRSIFSGIGSTAEPVSQSTTSDYQWDVSRNQPYIDDEWSGLNGLSSARPNSRDNAPAEEWGNWVDEERASLLKSQEPIPDDQKVSDDDKEKGEGALPTGKSKKKKKKKKKQGEDNSTAQDTEELEKEIREDLPVNTSKTRPKQEKAFSLKTISTSDPAEVLVKNSQPIKTLPPATSTEPSVILSKSDSDKSSSQVPPILQETDKSKSNTKQNSVPPSQTKSETSWESPKQIKKKKKARRET [D389R;D393R;W394D] was run?
**A.** disrupting interaction strength

**Q.** Which “effect of a mutation on the interaction” value does the source give for MAARSWQDELAQQAEEGSARLREMLSVGLGFLRTELGLDLGLEPKRYPGWVILVGTGALGLLLLFLLGYGWAAACAGARKKRRSPPRKREEAAAVPAAAPDDLALLKNLRSEEQKKKNRKKLSEKPKPNGRTVEVAEGEAVRTPQSVTAKQPPEIDKKNEKSKKNKKKSKSDAKAVQNSSRHDGKEVDEGAWETKISHREKRQQRKRDKVLTDSGSLDSTIPGIENTITVTTEQLTTASFPVGSKKNKGDSHLNVQVSNFKSGKGDSTLQVSSGLNENLTVNGGGWNEKSVKLSSQISAGEEKWNSVSPASAGKRKTEPSAWSQDTGDANTNGKDWGRSWSDRSIFSGIGSTAEPVSQSTTSDYQWDVSRNQPYIDDEWSGLNGLSSADPNSDWNAPARRDGNWVDEERASLLKSQEPIPDDQKVSDDDKEKGEGALPTGKSKKKKKKKKKQGEDNSTAQDTEELEKEIREDLPVNTSKTRPKQEKAFSLKTISTSDPAEVLVKNSQPIKTLPPATSTEPSVILSKSDSDKSSSQVPPILQETDKSKSNTKQNSVPPSQTKSETSWESPKQIKKKKKARRET [E399R;E400R;W401D] here?
**A.** disrupting interaction strength

Variants of: B1
Settings: with snd1_human SND1, Q7KZF4
Remark: another data set of the same source

**Q.** How did the “effect of a mutation on the interaction” value turn out when MAARSWQDELAQQAEEGSARLREMLSVGLGFLRTELGLDLGLEPKRYPGWVILVGTGALGLLLLFLLGYGWAAACAGARKKRRSPPRKREEAAAVPAAAPDDLALLKNLRSEEQKKKNRKKLSEKPKPNGRTVEVAEGEAVRTPQSVTAKQPPEIDKKNEKSKKNKKKSKSDAKAVQNSSRHDGKEVDEGAWETKISHREKRQQRKRDKVLTDSGSLDSTIPGIENTITVTTEQLTTASFPVGSKKNKGDSHLNVQVSNFKSGKGDSTLQVSSGLNENLTVNGGGWNEKSVKLSSQISAGEEKWNSVSPASAGKRKTEPSAWSQDTGDANTNGKDWGRSWSDRSIFSGIGSTAEPVSQSTTSDYQWDVSRNQPYIDDEWSGLNGLSSARPNSRDNAPAEEWGNWVDEERASLLKSQEPIPDDQKVSDDDKEKGEGALPTGKSKKKKKKKKKQGEDNSTAQDTEELEKEIREDLPVNTSKTRPKQEKAFSLKTISTSDPAEVLVKNSQPIKTLPPATSTEPSVILSKSDSDKSSSQVPPILQETDKSKSNTKQNSVPPSQTKSETSWESPKQIKKKKKARRET [D389R;D393R;W394D] was run?
**A.** disrupting interaction strength

— IntAct's records for PubMed 24981741
